Values of other authors in publication PMC4193333.

Target: BK channel alpha subunit (UniProt Q12791)
Sequence of UniProt Q12791 (Q12791 whole entry): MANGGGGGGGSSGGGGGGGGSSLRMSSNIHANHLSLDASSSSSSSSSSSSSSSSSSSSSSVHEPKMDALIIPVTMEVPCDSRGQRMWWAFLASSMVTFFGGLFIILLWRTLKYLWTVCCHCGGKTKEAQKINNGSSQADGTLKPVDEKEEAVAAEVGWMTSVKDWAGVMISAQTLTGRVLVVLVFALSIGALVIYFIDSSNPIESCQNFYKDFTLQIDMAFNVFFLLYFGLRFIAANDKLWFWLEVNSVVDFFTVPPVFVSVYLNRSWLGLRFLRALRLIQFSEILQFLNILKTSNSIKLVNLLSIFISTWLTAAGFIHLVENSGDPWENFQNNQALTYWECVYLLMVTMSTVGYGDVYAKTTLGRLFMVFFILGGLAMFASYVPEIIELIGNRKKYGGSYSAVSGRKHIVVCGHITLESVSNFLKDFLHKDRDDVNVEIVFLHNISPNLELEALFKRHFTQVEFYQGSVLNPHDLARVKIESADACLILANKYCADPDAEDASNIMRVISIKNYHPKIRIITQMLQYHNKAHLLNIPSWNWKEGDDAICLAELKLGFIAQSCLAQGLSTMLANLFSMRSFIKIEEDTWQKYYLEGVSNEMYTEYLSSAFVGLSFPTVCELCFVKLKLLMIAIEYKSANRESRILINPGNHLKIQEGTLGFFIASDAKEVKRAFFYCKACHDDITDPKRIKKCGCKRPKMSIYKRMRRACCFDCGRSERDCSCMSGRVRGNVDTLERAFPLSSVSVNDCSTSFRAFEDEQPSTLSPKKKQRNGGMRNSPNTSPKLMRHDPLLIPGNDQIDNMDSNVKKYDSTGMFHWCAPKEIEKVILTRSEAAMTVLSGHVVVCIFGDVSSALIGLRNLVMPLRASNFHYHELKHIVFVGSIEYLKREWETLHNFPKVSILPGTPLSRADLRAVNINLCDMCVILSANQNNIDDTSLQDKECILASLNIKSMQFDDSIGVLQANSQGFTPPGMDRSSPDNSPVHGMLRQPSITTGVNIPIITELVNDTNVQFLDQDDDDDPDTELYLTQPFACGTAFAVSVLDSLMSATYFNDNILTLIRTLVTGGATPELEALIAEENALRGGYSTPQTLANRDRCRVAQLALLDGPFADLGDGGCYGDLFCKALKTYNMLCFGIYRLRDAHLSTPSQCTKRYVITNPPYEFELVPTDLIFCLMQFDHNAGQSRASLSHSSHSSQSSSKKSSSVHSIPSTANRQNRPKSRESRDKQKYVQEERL

Iberiotoxin (IbTX) (from UniProt P24663)
Kd: 1.5 nM
